Assays:
Assay in all cases: IP/MS, LZTR1 wild type-FLAG, U87
MYO10 = MYO10 (human, UniProt Q9HD67 1-2058, limits assumed)
In short: (§1)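 Extracted peptides in 3% acetonitrile/0.1% formic acid ran on a 50 cm C18 column into an Orbitrap Fusion, with MaxQuant identification and spectral counting.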

EIF2AK4 = EIF2AK4 (human, UniProt Q9P2K8 1-1649, limits assumed)
In short: as §1

SEC24D = biological target: T1, SEC24D (human, UniProt O94855 1-1032, limits assumed)
T1 sequence (looked up): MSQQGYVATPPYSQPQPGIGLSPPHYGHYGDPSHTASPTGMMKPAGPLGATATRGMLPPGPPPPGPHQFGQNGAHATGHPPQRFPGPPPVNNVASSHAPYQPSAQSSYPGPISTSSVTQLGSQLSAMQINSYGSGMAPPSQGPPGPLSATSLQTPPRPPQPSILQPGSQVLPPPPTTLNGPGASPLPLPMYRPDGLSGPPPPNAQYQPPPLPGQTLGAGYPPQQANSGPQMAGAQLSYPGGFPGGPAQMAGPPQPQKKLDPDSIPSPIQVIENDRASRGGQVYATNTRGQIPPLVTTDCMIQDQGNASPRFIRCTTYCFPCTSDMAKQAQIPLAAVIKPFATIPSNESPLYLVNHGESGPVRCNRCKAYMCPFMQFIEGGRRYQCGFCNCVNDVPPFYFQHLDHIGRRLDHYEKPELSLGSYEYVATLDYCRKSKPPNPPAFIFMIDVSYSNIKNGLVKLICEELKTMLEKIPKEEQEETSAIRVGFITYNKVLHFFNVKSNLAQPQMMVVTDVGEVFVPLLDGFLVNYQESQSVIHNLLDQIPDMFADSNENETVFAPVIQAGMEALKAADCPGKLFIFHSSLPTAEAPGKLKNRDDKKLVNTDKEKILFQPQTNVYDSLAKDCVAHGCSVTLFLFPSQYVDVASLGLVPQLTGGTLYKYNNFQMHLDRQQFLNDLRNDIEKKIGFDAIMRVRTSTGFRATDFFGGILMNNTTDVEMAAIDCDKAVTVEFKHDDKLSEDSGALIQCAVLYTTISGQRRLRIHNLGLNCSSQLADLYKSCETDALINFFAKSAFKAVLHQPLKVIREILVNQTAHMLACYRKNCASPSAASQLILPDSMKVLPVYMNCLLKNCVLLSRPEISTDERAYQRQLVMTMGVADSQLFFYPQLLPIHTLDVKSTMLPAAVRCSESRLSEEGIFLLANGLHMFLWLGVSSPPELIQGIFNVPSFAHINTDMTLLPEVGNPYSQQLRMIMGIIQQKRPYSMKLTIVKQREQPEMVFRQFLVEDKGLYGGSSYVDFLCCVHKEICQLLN
In short: as §1

TRIO = TRIO (human, UniProt O75962 1-3097, limits assumed)
In short: as §1

ABR = biological target: T2, ABR (human, UniProt Q12979 1-859, limits assumed)
T2 sequence (looked up): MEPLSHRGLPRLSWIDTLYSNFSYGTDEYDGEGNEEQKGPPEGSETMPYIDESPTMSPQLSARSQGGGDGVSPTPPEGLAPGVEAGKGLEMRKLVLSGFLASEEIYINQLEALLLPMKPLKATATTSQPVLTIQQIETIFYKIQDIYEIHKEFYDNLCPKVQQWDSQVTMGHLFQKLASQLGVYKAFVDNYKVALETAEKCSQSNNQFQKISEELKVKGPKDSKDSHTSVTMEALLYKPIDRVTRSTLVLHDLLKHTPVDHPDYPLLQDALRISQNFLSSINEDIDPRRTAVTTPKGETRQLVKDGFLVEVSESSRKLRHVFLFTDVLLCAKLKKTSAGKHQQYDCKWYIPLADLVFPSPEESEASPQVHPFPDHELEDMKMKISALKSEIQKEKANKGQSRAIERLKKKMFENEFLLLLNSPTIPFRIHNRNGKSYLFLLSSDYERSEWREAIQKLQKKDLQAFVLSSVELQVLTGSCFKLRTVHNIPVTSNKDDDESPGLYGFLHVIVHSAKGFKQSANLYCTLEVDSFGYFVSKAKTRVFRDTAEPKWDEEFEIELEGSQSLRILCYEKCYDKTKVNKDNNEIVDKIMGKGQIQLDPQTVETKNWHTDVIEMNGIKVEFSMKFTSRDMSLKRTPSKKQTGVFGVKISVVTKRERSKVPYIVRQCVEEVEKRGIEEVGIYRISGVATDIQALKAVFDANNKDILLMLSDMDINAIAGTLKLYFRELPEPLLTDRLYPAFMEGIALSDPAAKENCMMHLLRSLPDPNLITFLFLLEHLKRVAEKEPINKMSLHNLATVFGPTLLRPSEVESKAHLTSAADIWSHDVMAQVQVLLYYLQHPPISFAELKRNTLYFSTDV
In short: as §1

Measured: binding result

Chain of MYO10 (Q9HD67 whole entry, the tested form may be a part): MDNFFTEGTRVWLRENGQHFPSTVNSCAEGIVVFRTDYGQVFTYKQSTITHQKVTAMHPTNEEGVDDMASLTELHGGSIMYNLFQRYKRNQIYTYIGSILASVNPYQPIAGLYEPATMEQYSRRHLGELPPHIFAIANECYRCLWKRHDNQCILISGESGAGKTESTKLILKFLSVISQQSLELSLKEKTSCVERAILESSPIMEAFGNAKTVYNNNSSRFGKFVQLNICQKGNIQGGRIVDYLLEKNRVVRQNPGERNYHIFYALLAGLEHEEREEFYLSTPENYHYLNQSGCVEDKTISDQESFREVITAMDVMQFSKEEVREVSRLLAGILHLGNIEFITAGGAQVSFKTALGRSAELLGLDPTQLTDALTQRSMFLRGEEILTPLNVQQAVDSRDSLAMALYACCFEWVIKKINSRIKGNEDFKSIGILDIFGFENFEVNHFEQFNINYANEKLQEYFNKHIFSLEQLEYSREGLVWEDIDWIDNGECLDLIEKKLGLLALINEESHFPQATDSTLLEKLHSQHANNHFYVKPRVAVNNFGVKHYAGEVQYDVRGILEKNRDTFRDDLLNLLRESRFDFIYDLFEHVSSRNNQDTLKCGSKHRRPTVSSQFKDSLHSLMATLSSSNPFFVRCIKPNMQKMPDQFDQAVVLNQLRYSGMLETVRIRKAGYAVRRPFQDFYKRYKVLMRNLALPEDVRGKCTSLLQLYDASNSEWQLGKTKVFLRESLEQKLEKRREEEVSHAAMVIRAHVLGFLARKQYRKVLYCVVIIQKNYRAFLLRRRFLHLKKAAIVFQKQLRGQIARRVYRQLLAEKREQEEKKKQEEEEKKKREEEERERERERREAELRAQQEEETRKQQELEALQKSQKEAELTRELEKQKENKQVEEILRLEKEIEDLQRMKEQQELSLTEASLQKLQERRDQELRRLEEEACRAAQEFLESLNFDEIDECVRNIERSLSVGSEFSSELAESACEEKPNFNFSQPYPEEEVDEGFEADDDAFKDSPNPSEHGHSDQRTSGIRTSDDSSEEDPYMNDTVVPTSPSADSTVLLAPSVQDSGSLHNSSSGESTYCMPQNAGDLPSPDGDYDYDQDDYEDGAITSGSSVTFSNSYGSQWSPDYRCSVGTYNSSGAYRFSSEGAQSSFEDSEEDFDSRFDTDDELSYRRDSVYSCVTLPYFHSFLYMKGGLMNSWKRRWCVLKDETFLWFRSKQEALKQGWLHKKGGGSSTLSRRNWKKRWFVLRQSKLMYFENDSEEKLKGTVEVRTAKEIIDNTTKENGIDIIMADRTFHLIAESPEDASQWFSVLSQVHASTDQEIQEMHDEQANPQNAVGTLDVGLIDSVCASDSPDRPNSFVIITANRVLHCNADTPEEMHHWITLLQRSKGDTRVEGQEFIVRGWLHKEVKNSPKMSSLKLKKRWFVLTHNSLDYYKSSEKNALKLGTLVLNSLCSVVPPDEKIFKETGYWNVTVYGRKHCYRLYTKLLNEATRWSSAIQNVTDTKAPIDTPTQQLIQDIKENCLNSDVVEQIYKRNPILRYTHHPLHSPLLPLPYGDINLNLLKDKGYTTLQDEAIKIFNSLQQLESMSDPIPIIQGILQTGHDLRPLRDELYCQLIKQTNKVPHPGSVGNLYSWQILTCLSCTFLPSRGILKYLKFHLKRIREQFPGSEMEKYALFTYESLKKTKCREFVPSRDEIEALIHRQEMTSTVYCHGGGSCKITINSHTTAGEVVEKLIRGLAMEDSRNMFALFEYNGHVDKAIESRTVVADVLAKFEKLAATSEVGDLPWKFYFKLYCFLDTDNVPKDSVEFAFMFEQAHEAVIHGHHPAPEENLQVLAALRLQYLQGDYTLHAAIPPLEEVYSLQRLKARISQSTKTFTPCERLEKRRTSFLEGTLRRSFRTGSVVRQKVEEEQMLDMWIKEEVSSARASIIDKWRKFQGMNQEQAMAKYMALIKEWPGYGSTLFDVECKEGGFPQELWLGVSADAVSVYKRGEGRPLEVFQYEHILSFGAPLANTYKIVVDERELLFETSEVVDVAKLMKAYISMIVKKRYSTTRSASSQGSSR
Chain of EIF2AK4 (Q9P2K8 whole entry): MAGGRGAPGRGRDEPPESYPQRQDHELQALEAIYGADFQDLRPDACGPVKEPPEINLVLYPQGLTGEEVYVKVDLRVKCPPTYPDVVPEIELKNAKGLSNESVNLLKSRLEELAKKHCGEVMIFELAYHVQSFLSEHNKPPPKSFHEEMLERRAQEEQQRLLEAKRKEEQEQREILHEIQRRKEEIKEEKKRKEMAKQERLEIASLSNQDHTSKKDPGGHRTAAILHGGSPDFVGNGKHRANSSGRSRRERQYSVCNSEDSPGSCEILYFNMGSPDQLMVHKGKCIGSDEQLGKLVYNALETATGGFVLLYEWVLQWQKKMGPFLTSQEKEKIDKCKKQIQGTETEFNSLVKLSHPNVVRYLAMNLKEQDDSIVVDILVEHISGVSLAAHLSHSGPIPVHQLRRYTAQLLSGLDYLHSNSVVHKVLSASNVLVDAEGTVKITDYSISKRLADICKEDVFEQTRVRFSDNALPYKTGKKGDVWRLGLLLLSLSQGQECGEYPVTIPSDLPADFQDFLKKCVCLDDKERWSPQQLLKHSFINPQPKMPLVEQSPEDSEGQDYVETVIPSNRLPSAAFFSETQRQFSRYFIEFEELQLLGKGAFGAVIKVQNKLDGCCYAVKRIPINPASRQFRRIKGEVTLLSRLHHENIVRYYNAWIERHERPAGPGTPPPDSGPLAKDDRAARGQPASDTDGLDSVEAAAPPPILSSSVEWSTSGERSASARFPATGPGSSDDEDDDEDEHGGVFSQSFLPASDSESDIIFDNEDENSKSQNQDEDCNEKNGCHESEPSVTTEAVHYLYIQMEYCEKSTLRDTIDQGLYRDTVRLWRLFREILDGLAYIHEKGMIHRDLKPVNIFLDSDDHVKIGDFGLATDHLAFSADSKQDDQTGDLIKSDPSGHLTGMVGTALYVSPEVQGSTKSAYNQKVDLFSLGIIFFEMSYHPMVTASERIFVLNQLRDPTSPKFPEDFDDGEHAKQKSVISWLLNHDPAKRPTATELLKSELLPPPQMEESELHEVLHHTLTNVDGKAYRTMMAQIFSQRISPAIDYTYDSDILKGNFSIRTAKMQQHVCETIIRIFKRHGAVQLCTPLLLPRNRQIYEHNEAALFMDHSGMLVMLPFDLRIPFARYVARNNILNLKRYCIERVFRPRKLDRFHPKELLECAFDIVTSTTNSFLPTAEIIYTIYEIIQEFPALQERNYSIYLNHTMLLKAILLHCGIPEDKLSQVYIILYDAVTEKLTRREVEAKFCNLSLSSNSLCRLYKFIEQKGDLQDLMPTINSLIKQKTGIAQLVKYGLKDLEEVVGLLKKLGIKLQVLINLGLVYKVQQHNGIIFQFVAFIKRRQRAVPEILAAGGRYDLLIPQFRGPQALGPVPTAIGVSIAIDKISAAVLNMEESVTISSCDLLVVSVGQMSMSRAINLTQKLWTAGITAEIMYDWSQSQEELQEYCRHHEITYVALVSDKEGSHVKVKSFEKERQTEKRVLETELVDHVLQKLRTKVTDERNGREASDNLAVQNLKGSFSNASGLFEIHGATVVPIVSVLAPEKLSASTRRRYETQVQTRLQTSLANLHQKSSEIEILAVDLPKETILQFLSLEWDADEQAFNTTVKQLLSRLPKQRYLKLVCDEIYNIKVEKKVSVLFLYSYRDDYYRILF

B1: LZTR1-FLAG (other, human, UniProt Q8N653 1-840, looked up)
chain: MAGPGSTGGQIGAAALAGGARSKVAPSVDFDHSCSDSVEYLTLNFGPFETVHRWRRLPPCDEFVGARRSKHTVVAYKDAIYVFGGDNGKTMLNDLLRFDVKDCSWCRAFTTGTPPAPRYHHSAVVYGSSMFVFGGYTGDIYSNSNLKNKNDLFEYKFATGQWTEWKIEGRLPVARSAHGATVYSDKLWIFAGYDGNARLNDMWTIGLQDRELTCWEEVAQSGEIPPSCCNFPVAVCRDKMFVFSGQSGAKITNNLFQFEFKDKTWTRIPTEHLLRGSPPPPQRRYGHTMVAFDRHLYVFGGAADNTLPNELHCYDVDFQTWEVVQPSSDSEVGGAEVPERACASEEVPTLTYEERVGFKKSRDVFGLDFGTTSAKQPTQPASELPSGRLFHAAAVISDAMYIFGGTVDNNIRSGEMYRFQFSCYPKCTLHEDYGRLWESRQFCDVEFVLGEKEECVQGHVAIVTARSRWLRRKITQARERLAQKLEQEAAPVPREAPGVAAGGARPPLLHVAIREAEARPFEVLMQFLYTDKIKYPRKGHVEDVLLIMDVYKLALSFQLCRLEQLCRQYIEASVDLQNVLVVCESAARLQLSQLKEHCLNFVVKESHFNQVIMMKEFERLSSPLIVEIVRRKQQPPPRTPLDQPVDIGTSLIQDMKAYLEGAGAEFCDITLLLDGHPRPAHKAILAARSSYFEAMFRSFMPEDGQVNISIGEMVPSRQAFESMLRYIYYGEVNMPPEDSLYLFAAPYYYGFYNNRLQAYCKQNLEMNVTVQNVLQILEAADKTQALDMKRHCLHIIVHQFTKVSKLPTLRSLSQQLLLDIIDSLASHISDKQCAELGADI
notes: Expressed in HEK 293T, HeLa or U87 cells; used as cell lysate; also called LZTR1 wild type-FLAG; LZTR1 WT; not shown: FLAG tag at the C-terminus
binds: MYO10 | EIF2AK4 | SEC24D | TRIO | ABR

From patent publication US20250262210A1 (TRUSTEES OF COLUMBIA UNIVERSITY IN THE CITY OF NEW YORK, published 2025)
